From US20220267443A1 (published 2022)

Key:
Assay in all cases: SPR
[1] = target: recombinant cynomolgus CTLA-4-Fc (Sino Biological, #90213-C02H)
[2] = target: recombinant human CTLA-4-Fc (R&D Systems, #7268-CT) (UniProt P16410 36-161)
[3] = target: Cynomolgus CTLA-4 monomer
[4] = target: Human CTLA-4 monomer

recombinant cynomolgus CTLA-4-Fc (Sino Biological, #90213-C02H), sequence (chain, as listed by the source C02H): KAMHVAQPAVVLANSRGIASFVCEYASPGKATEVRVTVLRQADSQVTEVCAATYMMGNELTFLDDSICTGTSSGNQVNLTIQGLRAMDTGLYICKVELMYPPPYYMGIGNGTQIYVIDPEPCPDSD
recombinant human CTLA-4-Fc (R&D Systems, #7268-CT), sequence (P16410 36-161): as the sequence (chain, as listed by the source C02H) above, with N14S, M106L counted along it

Kd [1]: 4.4 nM | Kd [2]: 1.7 nM | Kd [3]: 2.1 nM | Kd [4]: 2 nM
B1: AGEN2041w (antibody)
heavy: EVQLVESGGGLVKPGGSLRLSCAASGFTFSSYSMNWVRQAPGKGLEWVSSISSSSSYIYYADSVKGRFTISRDNAKNSLYLQMNSLRAEDTAVYYCARVGLMGPFDIWGQGTMVTVSSASTKGPSVFPLAPCSRSTSESTAALGCLVKDYFPEPVTVSWNSGALTSGVHTFPAVLQSSGLYSLSSVVTVPSSNFGTQTYTCNVDHKPSNTKVDKTVERKCCVECPPCPAPPVAGPSVFLFPPKPKDTLMISRTPEVTCVVVDVSHEDPEVQFNWYVDGVEVHNAKTKPREEQFNSTFRVVSVLTVVHQDWLNGKEYKCKVSNKGLPAPIEKTISKTKGQPREPQVYTLPPSREEMTKNQVSLTCLVKGFYPSDIAVEWESNGQPENNYKTTPPMLDSDGSFFLYSKLTVDKSRWQQGNVFSCSVMHEALHNHYTQKSLSLSPG
light: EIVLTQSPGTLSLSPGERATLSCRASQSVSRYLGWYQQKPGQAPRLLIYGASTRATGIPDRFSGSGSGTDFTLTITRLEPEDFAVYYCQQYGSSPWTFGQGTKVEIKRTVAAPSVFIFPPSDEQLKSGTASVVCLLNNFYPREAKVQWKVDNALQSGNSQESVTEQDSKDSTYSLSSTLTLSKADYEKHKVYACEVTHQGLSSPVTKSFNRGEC
